Data taken from patent US20140308259A1 (University of Pennsylvania, published 2014).

T1: human B7-H4 at the cell surface (human, UniProt Q7Z7D3 25-282)
T1 sequence (looked up): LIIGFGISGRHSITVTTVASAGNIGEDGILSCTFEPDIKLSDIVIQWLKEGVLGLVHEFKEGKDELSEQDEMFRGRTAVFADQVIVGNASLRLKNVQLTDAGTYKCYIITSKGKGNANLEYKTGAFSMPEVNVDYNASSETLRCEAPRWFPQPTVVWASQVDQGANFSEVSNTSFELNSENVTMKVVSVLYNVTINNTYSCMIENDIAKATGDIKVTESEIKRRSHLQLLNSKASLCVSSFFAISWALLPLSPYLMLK


Molecular target: T1, human B7-H4 at the cell surface
Experiment: cell-based or functional assay

Binder | IFN-γ production of MART-1 TCR T cells in presence of B7-H4+ TAMs
anti-B7H4 scFv clone 3#54 (scFv) scFv: RPVLTQPPSAAGTPGQRVTISCSGSSSNIGSNYVYWYQQLPGMAPKLLIYTNNQRPSGVPGRFSGSKSGTSASLAISGLRSEDEADYYCAAWDDSLNGWVFGGGTELTVLGGSSRSSSSGGGGSGGGGQVQLQESGPGLVKPSETLSLTCNVSGRSVSSGFYWSWIRQRPGKGLEWVGSIYRSGLTYYNPSLKSRVTISVDTSKNQFSLKLSSVTAADTAVYYCARATPWYYYGMDVWGQGTTVTVSSFEGSEQ | > 2 folds
anti-B7H4 scFv clone 3#68 (scFv) scFv: QPGLTQPPSASGTPGQRVTISCSGSSSNIGSNYVYWYQQFPGTAPKLLIYRNNQRPSGVPDRFSGSKSGTSASLAISGLRSEDEADYYCAAWDDSLSVWVFGGGTKVTVLGGSSRSSSSGGSGSGGGGQVTLKESGAEVKNPGSSVKVSCKASGGTFSSYAISWLRQAPGQGLEWMGWINPNSGGSDYAQRFQGRVTMTRDTSINTVYMELSRLRSDDTAVYYCARVEKRGYYYGMDVWGQGTMVTVSSFEGSEQ | > 2 folds
